According to PMC8760265:

Target: CDK9 (UniProt P50750)
Assay: co-IP with FLAG or HA antibody, immunoblot
Conditions: reference: HA-TRIM28 wild type; sites S824

## TRIM28 (from UniProt Q13263) HA-TRIM28-S824A
  binding against the reference: weaker
